One assay deals with T1, human CTLA-4.ECD.hFc (human, UniProt P16410 36-161).
T1 construct: extracellular domain; also called hCTLA-4.ECD.hFc; not shown: human Fc tag (hFc)
T1 sequence (looked up): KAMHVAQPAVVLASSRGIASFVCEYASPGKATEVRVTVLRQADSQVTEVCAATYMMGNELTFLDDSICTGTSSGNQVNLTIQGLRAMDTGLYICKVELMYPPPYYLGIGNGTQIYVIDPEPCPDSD
The assay can be described thus: competition ELISA, coated human CTLA-4.ECD.hFc, competitor CD80-6×His. As to the method:
Plates were coated with human CTLA-4.ECD.hFc (0.5 μg/mL) at 4° C. for 16-20 hours. […] After washing three times with PBS containing 0.05% Tween 20, biotinylated anti-His tag antibody was 1:2000 diluted and added. The plates were incubated at room temperature for 1 hour. The bound ligands were detected by HRP conjugated streptavidin (1:20000). The color was developed by dispensing 100 μL of TMB substrate for 8 mins, and then stopped by 100 μL of 2N HCl.
(ELISA stands for enzyme-linked immunosorbent assay.)

In assay [1] the target is T2, cynomolgus monkey CTLA-4 ECD-6×His (cynomolgus monkey).
T2 construct: extracellular domain; Bought; also called cynomoguls monkey CTLA-4.ECD-6×His
As to the kind of experiment: SPR, antibody captured on anti-human Fc, CTLA-4.ECD-6×His as analyte, 1:1 fit. As to the method:
(§1) Biacore T200, Series S Sensor Chip CMS, Amine Coupling Kit, and 10×HBS-EP were purchased from GE Healthcare. […] In immobilization step, the activation buffer was prepared by mixing 400 mM EDC and 100 mM NHS immediately prior to injection. The CM5 sensor chip was activated for 420 s with the activation buffer. 30 μg/mL of goat anti-human IgG Fcγ antibody in 10 mM NaAc (pH 4.5) was then injected to Fc1-Fc4 channels for 200 s at a flow rate of 5 μL/min. The chip was deactivated by 1 M ethanolamine-HCl (GE). Then the antibodies were captured on the chip. Briefly, 4 μg/mL antibodies in running buffer (HBS-EP+) was injected individually to Fc3 channel for 30 s at a flow rate of 10 μL/min. […] Regeneration buffer (10 mM Glycine pH 1.5) was injected at 10 μL/min for 30 s following every dissociation phase.
(§2) The binding kinetics of these antibodies were measured using SPR. The antibodies were captured on immobilized anti-human Fc and CTLA-4-ECD at different concentration was injected orderly. The sensorgrams for reference channel and buffer channel were subtracted from the test sensorgrams. The data was used for 1:1 binding analysis on human, monkey and mouse CTLA-4.ECD-6×His.
For orientation: Surface plasmon resonance follows binding to a sensor surface in real time, without labels.

A further assay addresses T3, human CTLA-4.ECD-6×His (human, UniProt P16410 36-161).
T3 construct: extracellular domain; also called WBP316.hCTLA-4.ECD-6×His; hCTLA4-His (WT)
T3 sequence: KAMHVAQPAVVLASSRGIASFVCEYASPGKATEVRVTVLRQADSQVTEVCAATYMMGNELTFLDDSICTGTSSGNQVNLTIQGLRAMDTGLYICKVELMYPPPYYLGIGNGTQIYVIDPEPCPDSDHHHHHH
The description is as above. As to the method:
as §1, §2

The target of the next assay is T4, hCTLA-4.ECD.hFc-Biotin (human, UniProt P16410 36-161, biotinylated (sites not given)).
T4 construct: extracellular domain; also called Biotinylated CTLA-4.ECD.hFc; biotinylated human CTLA4.ECD.hFc; not shown: human Fc tag (hFc)
T4 sequence (looked up): T1 sequence (looked up)
As to the kind of experiment: FACS competition, hCTLA-4.ECD.hFc-Biotin on CD80-expressing CHO cells. As to the method: PE conjugated Streptavidin was purchased from eBioscience (Catalog number 12-4317).
Then the mixtures of antibody and CTLA-4 were added to the cells and incubated for 1 hour at 4° C. The cells were washed two times with 200 μL FACS buffer (DPBS containing 1% BSA). Streptavidin PE 1 to 333 diluted in FACS buffer was added to the cells and incubated at 4° C. for 1 hour. Additional washing steps were performed two times with 200 μL FACS buffer followed by centrifugation at 1500 rpm for 4 minutes at 4° C. Finally, the cells were resuspended in 100 μL FACS buffer and fluorescence values were measured by flow cytometry and analyzed by FlowJo.

Assay [2] concerns the target T5, hCTLA4_ECD.His point mutant V81 to alanine (human, UniProt P16410 36-161).
T5 construct: extracellular domain; alanine-scan mutein, HEK293F supernatant
T5 sequence (looked up): T1 sequence (looked up) with V46A
The assay can be described thus: capture ELISA, alanine scan, vs silent alanine substitutions. As for the experimental part:
(§3) In order to test how the mutations affect antibody-binding, a capture ELISA was conducted. […] After interacting with the supernatant that contains quantified CTLA4 muteins, HRP conjugated anti-His antibody (1:5000; Rockland Immunochemicals, Pottstown, Pa.) was added as detection antibody. TMB was used as substance of HRP. Absorbance was normalized according to the average of control mutants. After setting an additional cutoff to the binding fold change (<0.55), the final determined epitope residues were identified.

The target in assay [3] is T6, hCTLA4_ECD.His point mutant T82 to alanine (human, UniProt P16410 36-161).
T6 construct: extracellular domain; alanine-scan mutein, HEK293F supernatant
T6 sequence (looked up): T1 sequence (looked up) with T47A
The assay is described as above. As to the method: as §3

Assay [4] addresses T7, hCTLA4_ECD.His point mutant G144 to alanine (human, UniProt P16410 36-161).
T7 construct: extracellular domain; alanine-scan mutein, HEK293F supernatant
T7 sequence (looked up): T1 sequence (looked up) with G109A
The assay is described as above. As for the experimental part:
as §3

Assay [5] deals with T8, hCTLA4_ECD.His point mutant I128 to alanine (human, UniProt P16410 36-161).
T8 construct: extracellular domain; alanine-scan mutein, HEK293F supernatant
T8 sequence (looked up): T1 sequence (looked up) with I93A
The description is as above. As to the method:
as §3

Changes are numbered by the printed parent chain.

B1: W3162-1.146.19-z12-uAb.IgG1K (antibody, V domains shown)
VH: QVQLQESGPGLVKPSETLSLTCSVTYHTITSGYDWTWIRKPPGKGMEWIGYISYSGNTNYNPSLKSRVTISRDTSKNQFFLKLSSVTAADTAVYYCASMMVPHYYVMDAWGQGTLVTVSS
VL: DIVMTQTPLSLSVTPGQPASISCRSSQSLLNSDGNTYLYWYLQKPGQSPQLLIYLVSKLGSGVPNRFSGSGSGTDFTLKISRVEAEDVGVYYCVQGTHDPWTFGGGTKVEIK
notes: Humanized; label says IgG1K
For the molecule B1, the results for the concentration for half-maximal inhibition (IC50) in the assay with human CTLA-4.ECD.hFc and with hCTLA-4.ECD.hFc-Biotin were 0.87 nM and 6.6 nM, respectively. The equilibrium dissociation constant (Kd) in assay [1] was 1.92 nM; with human CTLA-4.ECD-6×His, 0.477 nM. Besides, the dissociation rate constant (koff) in assay [1] is 0.000331 s⁻¹; in the assay with human CTLA-4.ECD-6×His, 9.82e-05 s⁻¹. The on-rate constant (kon) in assay [1] was determined as 173000 M⁻¹ s⁻¹; in the assay with human CTLA-4.ECD-6×His, 206000 M⁻¹ s⁻¹. Besides, the Fold change in assay [2] stood at 0.191 fold; in assay [3] it was 0.436 fold; in assay [4], 0.478 fold; in assay [5], 0.256 fold.

B2: W3162_1.154.8-z35-uAb.IgG1K (antibody, V domains shown)
VH: QVQLVQSGAEVKKPGSSVKVSCKASGYTFTNYFMNWVRQAPGQGLEWMGRVDPEQGRADYAEKFKKRVTITADKSTSTAYMELSSLRSEDTAVYYCARRAMDNYGFAYWGQGTLVTVSS
VL: EIVLTQSPDFQSVTPKEKVTITCSANSALSYMYWYQQKPDQSPKLWVHGTSNLASGVPSRFSGSGSGTDFTLTINSLEAEDAATYYCHHWSNTQWTFGGGTKVEIK
notes: Humanized; label says IgG1K
The molecule B2 registered a half-maximal inhibitory concentration (IC50) with human CTLA-4.ECD.hFc of 0.63 nM. Besides, in assay [1], binding was characterised by a dissociation constant (Kd) of 0.131 nM, the koff was 0.000122 s⁻¹ and the kon stood at 932000 M⁻¹ s⁻¹. In the assay with human CTLA-4.ECD-6×His, this molecule gave a Kd of 0.0968 nM, a koff of 0.000119 s⁻¹ and a kon of 1.23e+06 M⁻¹ s⁻¹. In addition, in the assay with hCTLA-4.ECD.hFc-Biotin, the IC50 was determined as 0.07 nM.

A word on the IC50: it is the concentration that inhibits the measured activity by half. For orientation: Kd means the equilibrium constant for the complex coming apart. The koff is a measure of how fast the partners let go of each other. What is called kon is a measure of how fast the partners come together.
